Several values for one entry are separate records, joined by “and”; a condition that tells them apart may be missing. Equal entries are not always repeated.
How the values were obtained:
Fc of human IgG1 (human) = assay: cryo-EM structure; pre-SEC O432-17-Fc sample, 0.5 mg/ml in 25 mM Tris pH 8.0, 150 mM NaCl; octahedral symmetry applied; design model refined into the map
[1] = biological target: O432-17(–) nanoparticle assembled with Fc (human); assay: SEC; in vitro packaging: 1x tetramer, 1x Fc, 1.1x negatively charged trimeric plug, 1x pos36GFP, dialysed 16 h at 25 °C into 25 mM Tris pH 8.0, 200 mM NaCl; Superose 6 10/300 GL; absorbance at 280 and 488 nm

Substance | stoichiometry N (Fc of human IgG1 (human)) | stoichiometry N (pos36GFP per nanoparticle) [1]
Fc of human IgG1 (domain or fragment) | 2 | –
positively charged GFP (pos36GFP) | – | 9 and 10

Source: PMC11402598
